Measured values: patent US20060177829A1 (NEW YORK UNIVERSITY, published 2006)
Substitutions are numbered along the chain they refer to. Values belong to the binder of their own block, whether it stands above or below them.

Tests used:
[1] = molecular target: T1, Flag-tagged β-TrCP2 (Fbw1b) (human, UniProt Q9UKB1 1-542); test: anti-Flag immunoprecipitation from transfected HeLa cells, blot for Cdc25A
T1 construct: F-box protein expressed from a Flag-tagged construct in HeLa cells; also called beta-TrCP2; not shown: Flag tag
T1 sequence: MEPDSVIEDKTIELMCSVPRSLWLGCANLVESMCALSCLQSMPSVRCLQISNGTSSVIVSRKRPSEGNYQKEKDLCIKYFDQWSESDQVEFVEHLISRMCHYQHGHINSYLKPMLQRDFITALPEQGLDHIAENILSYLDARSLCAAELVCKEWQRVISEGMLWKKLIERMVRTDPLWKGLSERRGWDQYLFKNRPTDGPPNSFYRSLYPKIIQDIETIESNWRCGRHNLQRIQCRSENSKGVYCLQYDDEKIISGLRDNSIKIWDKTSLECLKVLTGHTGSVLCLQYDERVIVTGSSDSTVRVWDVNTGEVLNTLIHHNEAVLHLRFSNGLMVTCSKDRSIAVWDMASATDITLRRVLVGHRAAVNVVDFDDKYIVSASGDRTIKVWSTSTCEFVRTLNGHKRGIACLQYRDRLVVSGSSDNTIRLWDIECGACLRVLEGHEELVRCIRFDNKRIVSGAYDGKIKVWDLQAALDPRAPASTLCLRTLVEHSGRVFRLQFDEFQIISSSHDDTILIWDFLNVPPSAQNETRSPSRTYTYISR
Source text: (§1) FIG. 1. Cdc25A interacts with beta-TrCP1 and beta-TrCP2 in vivo (I). HeLa cells were transfected with the indicated Flag-tagged F-box protein constructs. F-box proteins were immunoprecipitated from extracts with an anti-Flag resin and immunocomplexes were blotted with Cul1, Cdc25A and Flag specific antibodies.

[2] = molecular target: T2, Flag-tagged β-TrCP1 (Fbw1a) (human, UniProt Q9Y297 1-605); test: as above
T2 construct: F-box protein expressed from a Flag-tagged construct in HeLa cells and pulled down with anti-Flag resin; also called beta-TrCP1; Flag-beta-TrCP1; not shown: Flag tag
T2 sequence: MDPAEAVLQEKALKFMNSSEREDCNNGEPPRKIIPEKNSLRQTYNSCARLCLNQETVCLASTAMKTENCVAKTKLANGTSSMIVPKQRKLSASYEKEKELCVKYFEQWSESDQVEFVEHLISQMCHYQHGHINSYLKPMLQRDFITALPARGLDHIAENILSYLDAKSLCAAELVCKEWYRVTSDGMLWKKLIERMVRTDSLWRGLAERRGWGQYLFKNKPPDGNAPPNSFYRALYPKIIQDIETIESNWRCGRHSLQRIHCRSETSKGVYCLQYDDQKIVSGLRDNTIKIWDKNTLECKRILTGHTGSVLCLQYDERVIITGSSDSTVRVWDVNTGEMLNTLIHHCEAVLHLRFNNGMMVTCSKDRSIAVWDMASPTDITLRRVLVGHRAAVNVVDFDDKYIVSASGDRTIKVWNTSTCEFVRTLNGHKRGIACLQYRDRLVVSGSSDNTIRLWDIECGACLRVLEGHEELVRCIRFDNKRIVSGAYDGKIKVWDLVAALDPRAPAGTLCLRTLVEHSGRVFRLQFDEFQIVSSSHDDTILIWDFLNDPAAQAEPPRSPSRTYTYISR
Source text: as §1

[3] = molecular target: T1, Flag-tagged β-TrCP2 (Fbw1b); test: anti-Flag immunoprecipitation from HeLa cells co-transfected with His-Cdc25A, blot for Cdc25A
[4] = molecular target: T2, Flag-tagged β-TrCP1 (Fbw1a); test: as above
[5] = molecular target: T3, Flag-tagged Fbw7 (form not stated, FIG. 2) (human, UniProt Q969H0 1-707, limits assumed); test: as above
T3 construct: The Fbw7 of the parallel experiment with overexpressed Cdc25A; not shown: Flag tag
T3 sequence (Q969H0 whole entry): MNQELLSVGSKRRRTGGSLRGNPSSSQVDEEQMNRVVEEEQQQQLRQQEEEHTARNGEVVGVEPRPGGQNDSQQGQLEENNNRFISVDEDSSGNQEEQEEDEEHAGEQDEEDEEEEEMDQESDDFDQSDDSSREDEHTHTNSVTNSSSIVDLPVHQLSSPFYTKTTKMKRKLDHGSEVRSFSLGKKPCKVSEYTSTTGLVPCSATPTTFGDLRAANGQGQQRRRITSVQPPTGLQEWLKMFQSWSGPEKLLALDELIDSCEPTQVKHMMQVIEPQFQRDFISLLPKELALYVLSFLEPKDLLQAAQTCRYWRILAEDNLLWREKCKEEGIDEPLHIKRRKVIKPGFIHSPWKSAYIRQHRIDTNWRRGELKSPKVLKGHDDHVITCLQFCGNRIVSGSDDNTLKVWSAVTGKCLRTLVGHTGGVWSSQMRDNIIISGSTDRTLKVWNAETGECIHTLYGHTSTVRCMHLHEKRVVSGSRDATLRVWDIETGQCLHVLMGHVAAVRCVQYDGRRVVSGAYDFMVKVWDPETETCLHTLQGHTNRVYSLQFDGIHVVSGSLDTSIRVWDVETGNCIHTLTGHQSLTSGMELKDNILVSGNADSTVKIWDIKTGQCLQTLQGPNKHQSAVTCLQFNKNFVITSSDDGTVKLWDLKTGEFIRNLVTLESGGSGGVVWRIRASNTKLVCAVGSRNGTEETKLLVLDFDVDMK

[6] = molecular target: T4, Flag-tagged Skp2 (human, UniProt Q13309 1-424, limits assumed); test: as above
T4 construct: not shown: Flag tag
T4 sequence (Q13309 whole entry): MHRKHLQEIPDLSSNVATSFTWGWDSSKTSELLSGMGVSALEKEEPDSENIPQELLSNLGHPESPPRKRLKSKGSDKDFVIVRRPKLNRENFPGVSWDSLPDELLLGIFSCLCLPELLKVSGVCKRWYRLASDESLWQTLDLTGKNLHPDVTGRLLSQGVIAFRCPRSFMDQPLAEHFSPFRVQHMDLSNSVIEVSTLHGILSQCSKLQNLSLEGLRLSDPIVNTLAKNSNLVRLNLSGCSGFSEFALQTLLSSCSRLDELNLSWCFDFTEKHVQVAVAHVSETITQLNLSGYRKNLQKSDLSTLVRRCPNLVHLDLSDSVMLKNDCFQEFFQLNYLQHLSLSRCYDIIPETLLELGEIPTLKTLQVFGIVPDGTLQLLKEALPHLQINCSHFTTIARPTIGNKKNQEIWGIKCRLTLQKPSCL

[7] = molecular target: T2, Flag-tagged β-TrCP1 (Fbw1a); test: co-expression in HeLa cells, anti-Flag β-TrCP1 immunocomplexes blotted for Cdc25A
[8] = molecular target: T5, Skp1 (endogenous) (human, UniProt P63208 2-163); test: Flag-tagged Cdc25A immunocomplexes blotted for Skp1
T5 construct: Human by the cell lines used
T5 sequence (P63208 2-163 limits assumed): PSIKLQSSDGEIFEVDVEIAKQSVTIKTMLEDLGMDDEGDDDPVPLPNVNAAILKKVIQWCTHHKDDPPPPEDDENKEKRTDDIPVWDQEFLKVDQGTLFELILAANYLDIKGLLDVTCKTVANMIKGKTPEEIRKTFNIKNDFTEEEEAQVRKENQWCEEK

[9] = molecular target: T6, β-TrCP1 (endogenous) (human, UniProt Q9Y297 1-605); test: Flag-tagged Cdc25A immunocomplexes blotted for β-TrCP1
T6 construct: also called beta-TrCP
T6 sequence: T2 sequence

[10] = molecular target: T7, Cul1 (endogenous) (human, UniProt Q13616 1-776); test: Flag-tagged Cdc25A immunocomplexes blotted for Cul1
T7 construct: Human by the cell lines used; also called Cul1 subunit
T7 sequence (Q13616 whole entry): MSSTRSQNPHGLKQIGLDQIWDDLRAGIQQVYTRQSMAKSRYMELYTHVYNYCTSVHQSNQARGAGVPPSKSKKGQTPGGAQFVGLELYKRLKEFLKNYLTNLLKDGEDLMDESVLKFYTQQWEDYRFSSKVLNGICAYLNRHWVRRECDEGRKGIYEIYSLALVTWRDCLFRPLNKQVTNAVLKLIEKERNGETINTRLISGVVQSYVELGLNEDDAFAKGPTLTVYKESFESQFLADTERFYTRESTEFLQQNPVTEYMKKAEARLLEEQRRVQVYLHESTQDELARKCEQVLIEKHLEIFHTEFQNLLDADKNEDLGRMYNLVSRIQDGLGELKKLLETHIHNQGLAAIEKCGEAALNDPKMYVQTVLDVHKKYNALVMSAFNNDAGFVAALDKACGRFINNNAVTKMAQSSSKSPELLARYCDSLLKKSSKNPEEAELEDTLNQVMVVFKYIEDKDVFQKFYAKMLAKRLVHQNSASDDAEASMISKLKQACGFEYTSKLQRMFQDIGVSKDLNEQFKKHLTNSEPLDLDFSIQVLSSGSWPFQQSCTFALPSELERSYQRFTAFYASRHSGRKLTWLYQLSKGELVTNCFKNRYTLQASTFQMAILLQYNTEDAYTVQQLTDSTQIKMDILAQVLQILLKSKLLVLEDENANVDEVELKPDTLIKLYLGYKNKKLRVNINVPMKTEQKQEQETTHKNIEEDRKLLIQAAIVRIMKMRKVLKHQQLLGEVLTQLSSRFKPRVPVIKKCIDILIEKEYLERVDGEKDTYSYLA

binding result [1]: binds
binding result [2]: binds
B1: Cdc25A (endogenous, HeLa cells) (enzyme)
chain: MELGPSPAPRRLLFACSPPPASQPVVKALFGASAAGGLSPVTNLTVTMDQLQGLGSDYEQPLEVKNNSNLQRMGSSESTDSGFCLDSPGPLDSKENLENPMRRIHSLPQKLLGCSPALKRSHSDSLDHDIFQLIDPDENKENEAFEFKKPVRPVSRGCLHSHGLQEGKDLFTQRQNSAQLGMLSSNERDSSEPGNFIPLFTPQSPVTATLSDEDDGFVDLLDGENLKNEEETPSCMASLWTAPLVMRTTNLDNRCKLFDSPSLCSSSTRSVLKRPERSQEESPPGSTKRRKSMSGASPKESTNPEKAHETLHQSLSLASSPKGTIENILDNDPRDLIGDFSKGYLFHTVAGKHQDLKYISPEIMASVLNGKFANLIKEFVIIDCRYPYEYEGGHIKGAVNLHMEEEVEDFLLKKPIVPTDGKRVIVVFHCEFSSERGPRMCRYVRERDRLGNEYPKLHYPELYVLKGGYKEFFMKCQSYCEPPSYRPMHHEDFKEDLKKFRTKSRTWAGEKSKREMYSRLKKL
modifications: hyperphosphorylated in the form that co-precipitates with beta-TrCP (λ-phosphatase gave a faster migrating band); sites not mapped in that experiment
notes: also called cell division cycle 25A

binding result [3]: binds
binding result [4]: binds
binding result [5]: no binding
binding result [6]: no binding
B2: His-Cdc25A (overexpressed wild type) (enzyme)
chain: B1 chain
notes: also called overexpressed Cdc25A; not shown: His tag

binding result [7]: no binding
B3: His-tagged Cdc25A DSG3x (enzyme)
chain: B1 chain with S78A, S81A, S87A
notes: not shown: His tag

binding result [8]: no binding
binding result [9]: no binding
binding result [10]: no binding
B4: Flag-tagged Cdc25A DSG2x (enzyme)
chain: B1 chain with S81A, S87A
notes: Point mutant of the full-length pCDNA3.1-Flag-Cdc25A construct; also called DSG2x mutated protein; DSG2x protein; not shown: Flag tag from pCDNA3.1-Flag vector

binding result [7]: no binding
B5: His-tagged Cdc25A DSG2x (enzyme)
chain: B1 chain with S81A, S87A
notes: not shown: His tag
